Experimental data published in article PMC6644155.

Target: T1, Thyroid hormone receptor beta (THRβ), recombinant (Homo sapiens, UniProt P10828 1-461)
T1 sequence: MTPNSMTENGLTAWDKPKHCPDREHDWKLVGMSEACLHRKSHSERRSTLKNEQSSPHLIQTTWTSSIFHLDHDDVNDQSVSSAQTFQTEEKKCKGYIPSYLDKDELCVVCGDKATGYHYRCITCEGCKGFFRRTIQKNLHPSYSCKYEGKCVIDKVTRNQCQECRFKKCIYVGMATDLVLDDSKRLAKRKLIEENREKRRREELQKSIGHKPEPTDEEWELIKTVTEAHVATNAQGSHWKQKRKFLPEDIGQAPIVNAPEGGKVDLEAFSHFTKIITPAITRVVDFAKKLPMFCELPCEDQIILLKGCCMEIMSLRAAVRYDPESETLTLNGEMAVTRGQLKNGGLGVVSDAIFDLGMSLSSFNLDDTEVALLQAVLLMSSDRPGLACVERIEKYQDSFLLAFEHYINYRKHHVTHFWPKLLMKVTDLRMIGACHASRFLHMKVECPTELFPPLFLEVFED
Test: EMSA

B1: rs717-G (dsDNA)
DNA 1: CCCGGTCAGGACCACGGTGACCATGAGGGCG
DNA 2: CGCCCTCATGGTCACCGTGGTCCTGACCGGG
Does B1 bind?
Result: binds
